The supplement of paper PMC12764529
± gives the half width of the 95% confidence interval.

assay: folding stability dG unfold from chymotrypsin proteolysis; higher = more stable
Procedure, shortened: (§1)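 Only designs with AlphaFold2 dimer inter-PAE above 15 were retained; each was a mini-protein under 80 residues with no cysteine, in a PA-tagged cDNA display construct. After digestion with trypsin and chymotrypsin and sequencing, K50 was inferred by Bayesian fitting of counts, and unfolding free energy was derived per protease or combined against a sequence-predicted unfolded-state K50 and a shared folded-state K50.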

| Sequence | folding stability dG unfold [kcal/mol] |
| --- | --- |
| SAGGSAGSMPVEVTVTITVKDKNGTVLGTFPIKITVTSEEELEAKIKELKEKLKKEGYIVEKVDVVSAGGSA [r15_1054_JUSTAS] | 2.65 ± 0.041 |
| SAGGSAKIRYIKVLLRFPPKGEKKIIVIPIENIPEDRPEELIELAKAIAEAFVEGTGAEVEGIEISSAGGSA [r15_1013_TrMRF] | 3.88 ± 0.072 |
| SAGEEKVEELARELAEELGVTITEVTVTEEGDTVTITVVNEETGERITITVTRNEDGEITVTITVEKLPSAG [r5_888_TrROS_Hall] | 2.53 ± 0.17 |
| SAGGSAGGSAGGSPAVRIPLEVLKELIPPDLVVEVNPVPVPEEGGVLVPVRVVSPEEAASAGGSAGGSAGGS [r4_119_TrMRF] | 1.13 ± 0.042 |
| SAGGSAGGSAGGVKPGQKVKVEIDGKTYEATVDEKNGTIYVTLPNGKKYKAKIVKVEKVSAGGSAGGSAGGS [r10_1185_TrROS_Hall] | 2.64 ± 0.05 |
| SAGMKIETIPEVDYVVIEIDAKSLEEAIETLKYLTEKLGLKKVIAVADPTSNKVIAIAEVGNPEALEKLSAG [r5_598_TrMRF] | 1.56 ± 0.057 |
| SADKILVRVVFNLGGPPVELTLEADSPEELVEATIAVIKPLFPDADIREVKLFVYNPNTDEVEEFTLTASAG [r14_54_TrMRF] | 3.341 ± 0.021 |
| SAGGSAGGSDETLTVTRGRTETVTVRRVERRPPAAAPPLKVTLSAVLDADGRLVSVSASVELLSAGGSAGGS [r12_727_TrROS_Hall] | 1.88 ± 0.036 |
| SAGSNTIWYPFPLKEIKEAISSGQSMEEIADELSERHGEEVPIEYPNMKIRIYVPEPGPLYVRIEMTPDSAG [r5_343_TrROS] | 0.907 ± 0.098 |
| SAGGSMTLTGESEEEAKALVEALKEELKKKYPEKPNLEIPVKVIIKDPKTGKETEKVFKVKIPIPKSAGGSA [r2_393_JUSTAS] | 1.11 ± 0.09 |
| SAGGSAGGSAGGMPDGAEFELEFEFELPDGYRVRLRIRARIGPDGVVEFEVEVEVYEVPDSAGGSAGGSAGG [r7_125_TrMRF] | 5.13 ± 0.12 |
| SAGGSAALPIVEVLETEESSDGTVTILAKLEDGTVVTITVTVEVKPPPPPPPVDPANMSPERLAAVSAGGSA [r15_41_JUSTAS] | 0.181 ± 0.07 |
| GPPLPVEVDAEVDVVPLPGGPALVVRRPVRFPVTRRIVVVEVVRLPDGSVVARVDVYDPGDGRPRTFTLPLS [r1_261_TrMRF] | 2.373 ± 0.021 |
| SAGGSAGGSAMKIPPGETVEEVELSFLPNGEIILKKTTITKKGNTTTVETEVKIVKPDVPLSAGGSAGGSAG [r3_49_JUSTAS] | 0.701 ± 0.067 |
| SAGSSMSSTVRVEVTLTNPVTEVSPDGKTYTTPGDTVAVPVLINVSTTTYYNSSNPSDVVTETTTTVALSAG [r14_274_JUSTAS] | 1.22 ± 0.19 |
| SAGGSAGGSAGGPAPKIDIEIIGVFKTGNRPILIIRFPDGAVIVIDLDSGEIGVIPPDQISAGGSAGGSAGG [r7_28_TrROS] | 2.24 ± 0.11 |
| SAGGSAMVVRIEVDGKTIEIPAGASLEELKALLAENPGARFRIEVVEPPPPELSEEERKALEEARKSAGGSA [r15_36_TrROS_Hall] | 1.32 ± 0.077 |
| SAGGKKITITLTVKTPEDALAAARELAEALGLKIKKIKKVEVTYDEENNLVTVKVEIEIEPLPEEELSAGGS [r16_155_TrROS_Hall] | 4.27 ± 0.1 |
| SAGGSAGGSKKITIVVPTKEQAEALAKALEEAGYKVEKLPDGTLKITVDGKKIEVRIVPPKPKSAGGSAGGS [r12_204_TrROS_Hall] | 3.15 ± 0.047 |
| SAGMPEPRVFEIPNEGSESDLRDAVRELAEELRPSGREVRLVVEVGGRPREYRLEEVDRFPPDFRVVLGSAG [r5_626_TrMRF] | 0.324 ± 0.16 |
| SAGDWELVELRPFRFPNGLEALVAVYRNPADERLVVLTVVREPEGRLVAVALVEFDGDKLVSESVFSPGSAG [r14_828_TrMRF] | 3.755 ± 0.025 |

assay: folding stability dG unfold from trypsin proteolysis; higher = more stable
Procedure, shortened: as §1

| Sequence | folding stability dG unfold [kcal/mol] |
| --- | --- |
| SAGMIVTVLSKEVDPATGSTTTYSVSTDPETGETFLYTTTTTGDTVTTTRTVFFPGTGTTSTSTTTTSASAG [r5_150_JUSTAS] | 2.17 ± 0.056 |
| SAGGSAGGSGMKTLTIEFPNVTLEEAKEAVLKLLEELGLEPIPLEKVTITYHPENPNVITVVESAGGSAGGS [r12_122_JUSTAS] | 1.5 ± 0.098 |
| SAGGSAGGSAGKPSVTILVLTDSPEDALALAKPLLEAGYEVKLELFRLPDDRYLALITVPSAGGSAGGSAGG [r11_677_TrMRF] | 2.13 ± 0.041 |
| SAGGKTLVIKMKFKTKEEAEEAIKKLLEELGLPEGAKIEVTVERDENGELTVTITITVKDPEVLKALSAGGS [r8_85_TrROS_Hall] | 2 ± 0.11 |
| SAGGLDGDMKVDEMEHDPNNGTYRYKAEAGDQWWTFEMKVVPVIPPIPISISPEDLQEGNWNISIWFSAGGS [r16_809_TrROS] | 1.46 ± 0.05 |
| SAGGSAGGSEEEVEIKVVEPVDVVVLPDGTVRRTFRVEDGALLVITVHFPPDGNPVGEIEIFPSAGGSAGGS [r20_240_TrMRF] | 1.56 ± 0.032 |
| SAGGSELTLTVKVTVTVEVNGKTFTVEATLTLRFRPAPPPPKVRLERDADGNLRVTDANGKTRELRFSAGGS [r16_136_TrROS_Hall] | 2.42 ± 0.17 |
| SMIPVEELVRLAAERLGLPEEELENIEEVEPFEVEPLPDNAVRVKLRIRLKNPESDEVTELDIEIVDPGGSA [r9_230_TrMRF] | 1.2 ± 0.021 |
| SAGGSAGGMKVTSRETTEITVDTSTGKVTITTTTTLSNGTVVPVGTTTVAISELPEELLSEIESSAGGSAGG [r6_469_JUSTAS] | 0.308 ± 0.026 |
| SAGGSAPETLTIKVKNADGSTQTITLPAGATATSIEFNEDTGELTIHLEETGETITLPADEITEITSAGGSA [r15_133_TrROS_Hall] | 1.39 ± 0.12 |
| SAGGSAGGSAKKKVKIKLEFDKETNTLRIEVEDEDTGEKTEIEITIKLEPPPPPPLPEELKKSAGGSAGGSA [r18_361_TrROS_Hall] | 1.72 ± 0.18 |
| SAGKPIIVKVSVINEDGEEEEIAEFPIPPDLLKGSIEVGDGFIIAPDGEGPTFTAIIGDKPVKIEIEGSAGG [r19_408_TrMRF] | 0.658 ± 0.058 |
| SAGGSAGGSAGGSPSPLGKTRPALPASPVLKVPVTLPDDSLLTVYYDPLTGSLVVESYSSAGGSAGGSAGGS [r4_305_TrMRF] | 0.326 ± 0.026 |
| SAGGSAGGSAGGFYDPNGKWRIKIKPEVFEFPNYRFIKMKIEVDGRPIMEMPMLIPPNDSAGGSAGGSAGGS [r10_628_TrROS] | 3.41 ± 0.31 |
| SAGGSAGGSMTWTETVITLKGNGSETTTYKAKVTEDPSSDTVLVTLPDGTPLTIPKSQVTINSSAGGSAGGS [r12_256_JUSTAS] | -0.131 ± 0.18 |
| SAGGSAGGSEKKFKIVSVKVEYNKETGTVTIEVEIYDEKTGKLVLKATITINKNGELKITLEPSAGGSAGGS [r12_115_TrROS_Hall] | 3.9 ± 0.45 |
| SAGMTTTLTKTEKFPDGTTVTYTTVTAPDGTPLTATATYDPNNPNKATTTTTDPATGTTTTTTTTITGGSAG [r5_345_JUSTAS] | 1.03 ± 0.065 |
| SAMKKVEIEIEVVEVDGELYILIKIKAETPEEVKEAAEKLLKELGLPPEAEVEVVEKDGEVYILIRLKPSAG [r14_804_TrROS_Hall] | 3.08 ± 0.082 |
| SMKILIVTKEKAEELAEAIKKKFPNIEIEVFDTPEEAEEAAKKGDIVIVIGSEEEAKELAKKLKVKVIKISA [r9_380_TrROS_Hall] | 2.19 ± 0.09 |
| SAGGSVTKEELEKLNVEEVAALLPEDYTVTVVPGTGVVVISAPDRTLTITHDPATGKVTLTSEVEVSAGGSA [r2_470_JUSTAS] | 1.41 ± 0.1 |
| SAGGSAGGSSSVVSTLEETPDSVVEKVETPDPIIVERVPLPDGTVEVRVFKPDGTPISISTLGSAGGSAGGS [r12_1061_JUSTAS] | 0.99 ± 0.036 |

| Sequence | folding stability dG unfold [kcal/mol] |
| --- | --- |
| SAGGSAGSMPVEVTVTITVKDKNGTVLGTFPIKITVTSEEELEAKIKELKEKLKKEGYIVEKVDVVSAGGSA [r15_1054_JUSTAS] | 3.85 ± 0.17 |
| SAGGSAKIRYIKVLLRFPPKGEKKIIVIPIENIPEDRPEELIELAKAIAEAFVEGTGAEVEGIEISSAGGSA [r15_1013_TrMRF] | 4.34 ± 0.2 |
| SAGEEKVEELARELAEELGVTITEVTVTEEGDTVTITVVNEETGERITITVTRNEDGEITVTITVEKLPSAG [r5_888_TrROS_Hall] | 2.61 ± 0.28 |
| SAGGSAGGSAGGSPAVRIPLEVLKELIPPDLVVEVNPVPVPEEGGVLVPVRVVSPEEAASAGGSAGGSAGGS [r4_119_TrMRF] | 0.0931 ± 0.052 |
| SAGGSAGGSAGGVKPGQKVKVEIDGKTYEATVDEKNGTIYVTLPNGKKYKAKIVKVEKVSAGGSAGGSAGGS [r10_1185_TrROS_Hall] | 1.79 ± 0.18 |
| SAGMKIETIPEVDYVVIEIDAKSLEEAIETLKYLTEKLGLKKVIAVADPTSNKVIAIAEVGNPEALEKLSAG [r5_598_TrMRF] | 2.33 ± 0.07 |
| SADKILVRVVFNLGGPPVELTLEADSPEELVEATIAVIKPLFPDADIREVKLFVYNPNTDEVEEFTLTASAG [r14_54_TrMRF] | 2.44 ± 0.043 |
| SAGGSAGGSDETLTVTRGRTETVTVRRVERRPPAAAPPLKVTLSAVLDADGRLVSVSASVELLSAGGSAGGS [r12_727_TrROS_Hall] | 2.1 ± 0.05 |
| SAGSNTIWYPFPLKEIKEAISSGQSMEEIADELSERHGEEVPIEYPNMKIRIYVPEPGPLYVRIEMTPDSAG [r5_343_TrROS] | 0.519 ± 0.2 |
| SAGGSMTLTGESEEEAKALVEALKEELKKKYPEKPNLEIPVKVIIKDPKTGKETEKVFKVKIPIPKSAGGSA [r2_393_JUSTAS] | 1.04 ± 0.028 |
| SAGGSAGGSAGGMPDGAEFELEFEFELPDGYRVRLRIRARIGPDGVVEFEVEVEVYEVPDSAGGSAGGSAGG [r7_125_TrMRF] | 4.58 ± 0.15 |
| SAGGSAALPIVEVLETEESSDGTVTILAKLEDGTVVTITVTVEVKPPPPPPPVDPANMSPERLAAVSAGGSA [r15_41_JUSTAS] | 0.998 ± 0.08 |
| GPPLPVEVDAEVDVVPLPGGPALVVRRPVRFPVTRRIVVVEVVRLPDGSVVARVDVYDPGDGRPRTFTLPLS [r1_261_TrMRF] | 0.795 ± 0.04 |
| SAGGSAGGSAMKIPPGETVEEVELSFLPNGEIILKKTTITKKGNTTTVETEVKIVKPDVPLSAGGSAGGSAG [r3_49_JUSTAS] | 0.877 ± 0.027 |
| SAGSSMSSTVRVEVTLTNPVTEVSPDGKTYTTPGDTVAVPVLINVSTTTYYNSSNPSDVVTETTTTVALSAG [r14_274_JUSTAS] | 1.07 ± 0.026 |
| SAGGSAGGSAGGPAPKIDIEIIGVFKTGNRPILIIRFPDGAVIVIDLDSGEIGVIPPDQISAGGSAGGSAGG [r7_28_TrROS] | 2.9 ± 0.19 |
| SAGGSAMVVRIEVDGKTIEIPAGASLEELKALLAENPGARFRIEVVEPPPPELSEEERKALEEARKSAGGSA [r15_36_TrROS_Hall] | 1.35 ± 0.019 |
| SAGGKKITITLTVKTPEDALAAARELAEALGLKIKKIKKVEVTYDEENNLVTVKVEIEIEPLPEEELSAGGS [r16_155_TrROS_Hall] | 4.69 ± 0.33 |
| SAGGSAGGSKKITIVVPTKEQAEALAKALEEAGYKVEKLPDGTLKITVDGKKIEVRIVPPKPKSAGGSAGGS [r12_204_TrROS_Hall] | 1.28 ± 0.023 |
| SAGMPEPRVFEIPNEGSESDLRDAVRELAEELRPSGREVRLVVEVGGRPREYRLEEVDRFPPDFRVVLGSAG [r5_626_TrMRF] | -0.362 ± 0.25 |
| SAGDWELVELRPFRFPNGLEALVAVYRNPADERLVVLTVVREPEGRLVAVALVEFDGDKLVSESVFSPGSAG [r14_828_TrMRF] | 2.62 ± 0.079 |
